Key:
[1] = In vivo pharmacokinetic (PK) studies in rats; set-up: species or system Sprague-Dawley rats; conditions: rat, male Sprague-Dawley rats, single SC dose 1.0 mg/kg, serum ELISA; for AUC(0-inf): read-out: Rat PK AUC Total; for level at time molar at 24 h: read-out: Rat PK C24
Method: […] Blood samples were collected via jugular vein at different time points out to 72 hours. Blood samples were allowed to coagulate at room temperature (30-60 m) and then centrifuged (1500-2000) at 4° C. to obtain serum. After centrifugation serum samples were transferred to 96 well plates and stored at −80° C. until bioanalysis. Relaxin concentrations were measured from serum by ELISA.
Relaxin concentration-time profiles from individual animals were used for analysis. Pharmacokinetic parameters were calculated by non-compartmental methods using Phoenix WinNonlin (version 6.4) or Kinetica (version 5). Mean pharmacokinetic parameters Cmax, AUCinf, C24 and half-life were reported (Table 4). Table 4. In vivo PK data (abbreviations as in Table 3).

human RXFP1 receptor = target: T1, human RXFP1 receptor (Homo sapiens, UniProt Q9HBX9); experiment: Intracellular cAMP accumulation assay; type: cell-based
T1 construct: expressed in transfected cells
T1 sequence (Q9HBX9 1-757): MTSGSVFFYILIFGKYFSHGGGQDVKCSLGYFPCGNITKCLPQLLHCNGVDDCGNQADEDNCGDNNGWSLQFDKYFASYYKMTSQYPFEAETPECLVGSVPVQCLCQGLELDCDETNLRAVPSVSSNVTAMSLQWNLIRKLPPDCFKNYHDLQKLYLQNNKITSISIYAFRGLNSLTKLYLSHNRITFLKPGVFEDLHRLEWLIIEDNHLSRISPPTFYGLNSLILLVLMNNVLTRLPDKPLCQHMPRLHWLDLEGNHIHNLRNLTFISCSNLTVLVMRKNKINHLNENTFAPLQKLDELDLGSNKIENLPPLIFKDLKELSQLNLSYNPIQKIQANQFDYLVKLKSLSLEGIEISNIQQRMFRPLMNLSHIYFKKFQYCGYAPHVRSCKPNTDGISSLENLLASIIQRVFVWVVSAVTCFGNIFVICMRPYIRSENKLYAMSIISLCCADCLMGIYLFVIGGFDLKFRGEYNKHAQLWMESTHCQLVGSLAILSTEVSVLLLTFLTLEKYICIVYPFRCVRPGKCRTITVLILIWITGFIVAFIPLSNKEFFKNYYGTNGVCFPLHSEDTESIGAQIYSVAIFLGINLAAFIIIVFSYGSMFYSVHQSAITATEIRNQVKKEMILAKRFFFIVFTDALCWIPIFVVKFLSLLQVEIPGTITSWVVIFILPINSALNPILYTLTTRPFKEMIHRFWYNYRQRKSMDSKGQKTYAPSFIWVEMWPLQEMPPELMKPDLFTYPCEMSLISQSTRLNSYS

SMILES	AUC(0-inf) [1] [nM·h]	level at time molar at 24 h [1] [nM]	EC50 (human RXFP1 receptor) [nM]
CC[C@H](C)[C@@H]1NC(=O)[C@H](C)NC(=O)[C@H]([C@@H](C)CC)NC(=O)[C@H](CCC(N)=O)NC(=O)[C@H](C)NC(=O)[C@H](CCCNC(=N)N)NC(=O)[C@H](C(C)C)NC(=O)[C@H](CC(C)C)NC(=O)[C@H](CCC(=O)O)NC(=O)[C@H](CCCNC(=N)N)NC(=O)CNC(=O)[C@@H](NC(=O)[C@H](CC(C)C)NC(=O)[C@H](CCCCN)NC(=O)[C@@H](NC(=O)[C@@H](NC(=O)[C@H](CCC(=O)O)NC(=O)[C@H](CCC(=O)O)NC(=O)[C@H](CCSC)NC(=O)[C@H](Cc2c[nH]c3ccccc23)NC(=O)[C@H](CO)NC(=O)[C@H](C)N)C(C)C)[C@@H](C)CC)CSSC[C@@H]2NC(=O)[C@@H](NC(=O)[C@H](CCCCN)NC(=O)[C@H](CC(N)=O)NC(=O)[C@H](C)NC(=O)[C@H](CC(C)C)NC(=O)[C@H](C)NC(=O)[C@H](CO)NC(=O)[C@H](Cc3ccc(O)cc3)NC(=O)[C@H](CC(C)C)NC(=O)[C@@H](N)Cc3ccc(/C(C)=N/OCCNC(=O)CNC(=O)[C@H](CO)NC(=O)[C@@H]4CCCN4C(=O)CNC(=O)[C@H](CO)NC(=O)[C@@H]4CCCN4C(=O)CC[C@H](NC(=O)CCCCCCCCCCCCCC(=O)O)C(=O)O)cc3)CSSC[C@H](NC(=O)CNC(=O)[C@H](C(C)C)NC(=O)[C@H](Cc3c[nH]cn3)NC2=O)C(=O)N[C@@H]([C@@H](C)O)C(=O)N[C@@H](CCCCN)C(=O)N[C@@H](CCCNC(=N)N)C(=O)N[C@@H](CO)C(=O)N[C@@H](CC(C)C)C(=O)N[C@@H](C)C(=O)N[C@@H](CCCNC(=N)N)C(=O)N[C@@H](Cc2ccccc2)C(=O)N[C@H](C(=O)O)CSSC[C@@H](C(=O)NCC(=O)N[C@@H](CCSC)C(=O)N[C@@H](CO)C(=O)N[C@H](C(=O)N[C@@H](Cc2c[nH]c3ccccc23)C(=O)N[C@@H](CO)C(=O)O)[C@@H](C)O)NC1=O [AQ1-GSPGSP-Glu^γ-C14-COOH]	1980	5	0.29
CC[C@H](C)[C@@H]1NC(=O)[C@H](C)NC(=O)[C@H]([C@@H](C)CC)NC(=O)[C@H](CCC(N)=O)NC(=O)[C@H](C)NC(=O)[C@H](CCCNC(=N)N)NC(=O)[C@H](C(C)C)NC(=O)[C@H](CC(C)C)NC(=O)[C@H](CCC(=O)O)NC(=O)[C@H](CCCNC(=N)N)NC(=O)CNC(=O)[C@@H](NC(=O)[C@H](CC(C)C)NC(=O)[C@H](CCCCN)NC(=O)[C@@H](NC(=O)[C@@H](NC(=O)[C@H](CCC(=O)O)NC(=O)[C@H](CCC(=O)O)NC(=O)[C@H](CCSC)NC(=O)[C@H](Cc2c[nH]c3ccccc23)NC(=O)[C@H](CO)NC(=O)[C@H](C)N)C(C)C)[C@@H](C)CC)CSSC[C@@H]2NC(=O)[C@@H](NC(=O)[C@H](CCCCN)NC(=O)[C@H](CC(N)=O)NC(=O)[C@H](C)NC(=O)[C@H](CC(C)C)NC(=O)[C@H](C)NC(=O)[C@H](CO)NC(=O)[C@H](Cc3ccc(O)cc3)NC(=O)[C@H](CC(C)C)NC(=O)[C@@H](N)Cc3ccc(C(C)=NOCCNC(=O)[C@@H](CCCCN)NC(=O)[C@@H](CCCCN)NC(=O)[C@@H](CCCCN)NC(=O)[C@@H](CCCCN)NC(=O)[C@@H](CCCCN)NC(=O)[C@@H](CCCCN)NC(=O)CC[C@H](NC(=O)CCCCCCCCCCCCC(=O)O)C(=O)O)cc3)CSSC[C@H](NC(=O)CNC(=O)[C@H](C(C)C)NC(=O)[C@H](Cc3c[nH]cn3)NC2=O)C(=O)N[C@@H]([C@@H](C)O)C(=O)N[C@@H](CCCCN)C(=O)N[C@@H](CCCNC(=N)N)C(=O)N[C@@H](CO)C(=O)N[C@@H](CC(C)C)C(=O)N[C@@H](C)C(=O)N[C@@H](CCCNC(=N)N)C(=O)N[C@@H](Cc2ccccc2)C(=O)N[C@H](C(=O)O)CSSC[C@@H](C(=O)NCC(=O)N[C@@H](CCSC)C(=O)N[C@@H](CO)C(=O)N[C@H](C(=O)N[C@@H](Cc2c[nH]c3ccccc23)C(=O)N[C@@H](CO)C(=O)O)[C@@H](C)O)NC1=O [AQ1-dKdKdKdKdKdK-Glu^γ-C13-COOH]	31.2	0.06	0.1
CC[C@H](C)[C@@H]1NC(=O)[C@H](C)NC(=O)[C@H]([C@@H](C)CC)NC(=O)[C@H](CCC(N)=O)NC(=O)[C@H](C)NC(=O)[C@H](CCCNC(=N)N)NC(=O)[C@H](C(C)C)NC(=O)[C@H](CC(C)C)NC(=O)[C@H](CCC(=O)O)NC(=O)[C@H](CCCNC(=N)N)NC(=O)CNC(=O)[C@@H](NC(=O)[C@H](CC(C)C)NC(=O)[C@H](CCCCN)NC(=O)[C@@H](NC(=O)[C@@H](NC(=O)[C@H](CCC(=O)O)NC(=O)[C@H](CCC(=O)O)NC(=O)[C@H](CCSC)NC(=O)[C@H](Cc2c[nH]c3ccccc23)NC(=O)[C@H](CO)NC(=O)[C@H](C)N)C(C)C)[C@@H](C)CC)CSSC[C@@H]2NC(=O)[C@@H](NC(=O)[C@H](CCCCN)NC(=O)[C@H](CC(N)=O)NC(=O)[C@H](C)NC(=O)[C@H](CC(C)C)NC(=O)[C@H](C)NC(=O)[C@H](CO)NC(=O)[C@H](Cc3ccc(O)cc3)NC(=O)[C@H](CC(C)C)NC(=O)[C@@H](N)Cc3ccc(C(C)=NOCCNC(=O)CNC(=O)CNC(=O)CNC(=O)CNC(=O)[C@@H]4CCCN4C(=O)CC[C@H](NC(=O)CCCCCCCCCCCCCC(=O)O)C(=O)O)cc3)CSSC[C@H](NC(=O)CNC(=O)[C@H](C(C)C)NC(=O)[C@H](Cc3c[nH]cn3)NC2=O)C(=O)N[C@@H]([C@@H](C)O)C(=O)N[C@@H](CCCCN)C(=O)N[C@@H](CCCNC(=N)N)C(=O)N[C@@H](CO)C(=O)N[C@@H](CC(C)C)C(=O)N[C@@H](C)C(=O)N[C@@H](CCCNC(=N)N)C(=O)N[C@@H](Cc2ccccc2)C(=O)N[C@H](C(=O)O)CSSC[C@@H](C(=O)NCC(=O)N[C@@H](CCSC)C(=O)N[C@@H](CO)C(=O)N[C@H](C(=O)N[C@@H](Cc2c[nH]c3ccccc23)C(=O)N[C@@H](CO)C(=O)O)[C@@H](C)O)NC1=O [AQ1-GGGGP-Glu^γ-C14-COOH]	2180	3.9	0.39
CC[C@H](C)[C@@H]1NC(=O)[C@H](C)NC(=O)[C@H]([C@@H](C)CC)NC(=O)[C@H](CCC(N)=O)NC(=O)[C@H](C)NC(=O)[C@H](CCCNC(=N)N)NC(=O)[C@H](C(C)C)NC(=O)[C@H](CC(C)C)NC(=O)[C@H](CCC(=O)O)NC(=O)[C@H](CCCNC(=N)N)NC(=O)CNC(=O)[C@@H](NC(=O)[C@H](CC(C)C)NC(=O)[C@H](CCCCN)NC(=O)[C@@H](NC(=O)[C@@H](NC(=O)[C@H](CCC(=O)O)NC(=O)[C@H](CCC(=O)O)NC(=O)[C@H](CCSC)NC(=O)[C@H](Cc2c[nH]c3ccccc23)NC(=O)[C@H](CO)NC(=O)[C@H](C)N)C(C)C)[C@@H](C)CC)CSSC[C@@H]2NC(=O)[C@@H](NC(=O)[C@H](CCCCN)NC(=O)[C@H](CC(N)=O)NC(=O)[C@H](C)NC(=O)[C@H](CC(C)C)NC(=O)[C@H](C)NC(=O)[C@H](CO)NC(=O)[C@H](Cc3ccc(O)cc3)NC(=O)[C@H](CC(C)C)NC(=O)[C@@H](N)Cc3ccc(C(C)=NOCCNC(=O)[C@H](CCC(=O)O)NC(=O)CNC(=O)CNC(=O)[C@H](CO)NC(=O)CC[C@H](NC(=O)CCCCCCCCCCCCCC(=O)O)C(=O)O)cc3)CSSC[C@H](NC(=O)CNC(=O)[C@H](C(C)C)NC(=O)[C@H](Cc3c[nH]cn3)NC2=O)C(=O)N[C@@H]([C@@H](C)O)C(=O)N[C@@H](CCCCN)C(=O)N[C@@H](CCCNC(=N)N)C(=O)N[C@@H](CO)C(=O)N[C@@H](CC(C)C)C(=O)N[C@@H](C)C(=O)N[C@@H](CCCNC(=N)N)C(=O)N[C@@H](Cc2ccccc2)C(=O)N[C@H](C(=O)O)CSSC[C@@H](C(=O)NCC(=O)N[C@@H](CCSC)C(=O)N[C@@H](CO)C(=O)N[C@H](C(=O)N[C@@H](Cc2c[nH]c3ccccc23)C(=O)N[C@@H](CO)C(=O)O)[C@@H](C)O)NC1=O [AQ1-EGGS-Glu^γ-C14-COOH]	–	–	0.33
